In patent US20100048468A1 (Amgen, published 2010):
Like-named read-outs stand apart in the source and are kept apart here. Positions of bridges follow the written chain, without caps; N, C: chain ends. No end group written: not given here.

What was measured:
human GLP-1 receptor [1] = target: T1, human GLP-1 receptor (human, UniProt P43220 24-463); test: 125I-GLP-1 displacement, membranes of CHOK1 cells expressing human GLP-1 receptor
mouse GLP-1 receptor [2] = target: T2, mouse GLP-1 receptor (mouse, UniProt O35659 22-463); test: cell-based or functional assay
T2 sequence (looked up): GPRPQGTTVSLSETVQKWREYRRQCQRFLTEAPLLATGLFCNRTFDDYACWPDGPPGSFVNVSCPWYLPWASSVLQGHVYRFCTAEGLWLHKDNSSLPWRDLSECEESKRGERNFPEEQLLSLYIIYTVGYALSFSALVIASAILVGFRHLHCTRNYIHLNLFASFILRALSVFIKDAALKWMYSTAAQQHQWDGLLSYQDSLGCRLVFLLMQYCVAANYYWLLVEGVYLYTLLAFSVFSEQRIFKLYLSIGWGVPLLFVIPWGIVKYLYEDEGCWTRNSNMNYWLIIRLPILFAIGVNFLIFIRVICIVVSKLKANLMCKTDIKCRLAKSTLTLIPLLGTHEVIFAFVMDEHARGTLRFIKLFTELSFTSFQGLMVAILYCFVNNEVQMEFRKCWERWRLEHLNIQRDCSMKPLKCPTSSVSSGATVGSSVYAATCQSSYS

human GLP-1 receptor [3] = target: T1, human GLP-1 receptor; test: cell-based or functional assay
human GLP-1 receptor [4] = target: T1, human GLP-1 receptor; test: 125I-GLP-1 displacement, membranes of CHOK1 cells expressing human GLP-1 receptor
Method: Membrane Preparation. […] Cells were sedimented at 1500 rpm for 10 minutes. The resulting pellets were homogenized in 15 mls of ice cold sucrose buffer (25 mM Tris-HCl, 0.32 M Sucrose, 0.25 g/L, sodium azide, pH 7.4) with a motorized, glass fitted, Teflon homogenizer. The homogenate was centrifuged at 48,000×g at 4° C. for 10 minutes, resuspended in 25 ml assay buffer (50 mM Tris-HCl, 5 mM MgCl₂, 10 mg/ml protease-free BSA, 0.1 mg/ml STI, and 0.1 mg/ml Pefabloc, pH 7.4) with a Tissue-Tearor (Biospec Products), then centrifuged again at 48,000×g for 10 minutes. The pellets were homogenized for a third time in 15 ml assay buffer using the Tissue-Tearor and again centrifuged at 48,000×g for 10 minutes. The resulting pellet was resuspended in assay buffer at a wet weight concentration of 4 mg/ml.
Ligand Binding Assay. Binding assays were performed in 96-well U-bottom plates. […] The reaction was terminated by rapid filtration through Unfilter-96 GF/C glass fiber filter plates (FilterMate 196 Packard Harvester, PerkinElmer, Shelton, Conn.) pre-soaked in 0.5% polyethylenimine, followed by three washes with 300 μl of cold 50 mM Tris-HCl, pH 7.4. Bound radioactivity was determined using a TopCount microplate scintillation and luminescence counter (Packard Instrument Company, PerkinElmer, Shelton, Conn.). […]

human GLP-1 receptor [5] = target: T1, human GLP-1 receptor; test: cell-based or functional assay; remark: listed apart in the source
mouse GLP-1 receptor [6] = target: T2, mouse GLP-1 receptor; test: cell-based or functional assay; remark: listed apart in the source
[7] = target: T3, human GLP-1 receptor (human), P43220; test: 125I-GLP-1 displacement, membranes of CHOK1 cells expressing human GLP-1 receptor
T3 chain: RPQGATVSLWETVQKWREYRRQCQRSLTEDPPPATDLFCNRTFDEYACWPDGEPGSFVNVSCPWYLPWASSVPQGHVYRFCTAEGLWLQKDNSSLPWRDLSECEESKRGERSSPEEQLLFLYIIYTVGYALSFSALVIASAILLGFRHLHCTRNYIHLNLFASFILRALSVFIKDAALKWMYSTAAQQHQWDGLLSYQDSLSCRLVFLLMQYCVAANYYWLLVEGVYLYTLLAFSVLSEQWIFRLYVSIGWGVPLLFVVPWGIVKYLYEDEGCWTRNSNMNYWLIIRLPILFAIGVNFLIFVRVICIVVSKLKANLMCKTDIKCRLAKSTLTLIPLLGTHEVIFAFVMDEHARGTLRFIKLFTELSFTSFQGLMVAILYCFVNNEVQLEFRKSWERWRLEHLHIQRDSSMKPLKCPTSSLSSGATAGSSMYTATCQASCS

[8] = target: T3, human GLP-1 receptor (human), P43220; test: cell-based or functional assay
[9] = target: T4, mouse GLP-1 receptor (mouse), O35659; test: cell-based or functional assay
T4 chain: T2 sequence (looked up)

HGEGT FTSDV SSYLE [Aib]QAAK EFIAW LVKGR-AMIDE (SEQ ID NO: 14) (peptide)
IC50 (human GLP-1 receptor [1]): 2.5 nM | EC50 mouse (mouse GLP-1 receptor [2]): 0.15 nM | EC50 human (human GLP-1 receptor [3]): 0.016 nM

B1: cycloE22-O26 (SEQ ID NO: 69) (peptide)
peptide: HGEGTFTSDVSSYLEEQAAXEFIAWLVKGRG
modifications: ornithine at position 26 (GLP-1 numbering; residue 20 of the entry); side-chain cyclic lactam between Glu22 and Orn26; C-terminal amide
notes: Not pegylated
IC50 (human GLP-1 receptor [4]): 3.7 nM | EC50 human (human GLP-1 receptor [5]): 0.051 nM

B2: GLP1(7-37) cyclo[Lys16-Glu20] (SEQ ID NO: 159) (peptide)
peptide: HGEGTFTSDVSSYLEKQAAEEFIAWLVKGRG-NH2
modifications: lactam 16-20; N-terminus assumed
SMILES: CC[C@H](C)[C@H](NC(=O)[C@H](Cc1ccccc1)NC(=O)[C@H](CCC(=O)O)NC(=O)[C@@H]1CCC(=O)NCCCC[C@H](NC(=O)[C@H](CCC(=O)O)NC(=O)[C@H](CC(C)C)NC(=O)[C@H](Cc2ccc(O)cc2)NC(=O)[C@H](CO)NC(=O)[C@H](CO)NC(=O)[C@@H](NC(=O)[C@H](CC(=O)O)NC(=O)[C@H](CO)NC(=O)[C@@H](NC(=O)[C@H](Cc2ccccc2)NC(=O)[C@@H](NC(=O)CNC(=O)[C@H](CCC(=O)O)NC(=O)CNC(=O)[C@@H](N)Cc2c[nH]cn2)[C@@H](C)O)[C@@H](C)O)C(C)C)C(=O)N[C@@H](CCC(N)=O)C(=O)N[C@@H](C)C(=O)N[C@@H](C)C(=O)N1)C(=O)N[C@@H](C)C(=O)N[C@@H](Cc1c[nH]c2ccccc12)C(=O)N[C@@H](CC(C)C)C(=O)N[C@H](C(=O)N[C@@H](CCCCN)C(=O)NCC(=O)N[C@@H](CCCNC(=N)N)C(=O)NCC(N)=O)C(C)C
EC50 mouse (mouse GLP-1 receptor [6]): 0.1 nM | EC50 human (human GLP-1 receptor [5]): 0.016 nM

HGEGTFTSDVSSYLEGQAAKEFIAWLVKGRGCSG (modifications not checked) [cgGLP-10 (SEQ ID NO: 10 + 20k PEG dimer)]
IC50 [7]: 100 nM | EC50 human [8]: 0.6 nM | EC50 mouse [9]: 4 nM
